The target of assay [1] is T1, recombinant human tissue factor (rhTF), residues 33 to 251 of hTF with C-terminal His6 tag (human, UniProt P13726 33-251).
T1 construct: range 33-251; also called rhTF antigen
Briefly: SPR, ratio of koff values, reference 1849ADC. As to the method: (§1) SPR measurement was performed by using BiaCore T200 (GE Healthcare). The recombinant human tissue factor antigen (rhTF antigen) was subjected to buffer exchange to 10 mM sodium acetate solution (pH 5.0) and the final protein concentration was adjusted to 2 to 10 μg/mL. Subsequently, contact time was set to 30 seconds and the antigen was immobilized on a CM5 sensor chip (GE Healthcare) according to a basic protocol by using amine coupling. Then, 5 dilution series of the antibody solution were prepared by diluting each ADC solution in DPBS so that the final concentrations thereof became 320 nM, 160 nM, 80 nM, 40 nM, and 20 nM.
(In general: Surface plasmon resonance follows binding to a sensor surface in real time, without labels.)

Assay [2] has as its target T1, recombinant human tissue factor (rhTF), …. The experiment in a line: SPR, Biacore T200, rhTF on CM5 chip, single-cycle kinetics, bivalent analyte model. As to the method: as §1
In assay [3] the target is recombinant human tissue factor (rhTF, SEQ ID NO: 13) (human, UniProt P13726 33-251). The experiment in a line: ELISA screen of hybridomas on solid-phase rhTF. The source says:
(§2) Recombinant human tissue factor micellized using FCA adjuvant (rhTF, SEQ ID NO: 13) was intraperitoneally administered to Wister rats. After several immunizations, rat antisera were examined by ELISA using a solid phase having rhTFs thereon. A spleen was excised from a rat individual that had shown an increased antibody titer and splenocytes were obtained therefrom. The splenocytes and p3X63 mouse myeloma cells were fused by a PEG technique and cultivated in a HAT culture medium to select hybridoma cells. The hybridoma cells were screened to select those that reacted positively to rhTFs in ELISA and also reacted positively to cells expressing human tissue factor strongly such as an MCF7 cell in flow cytometry analysis. The selected hybridoma cells were cloned by limiting dilution to establish hybridoma cell clones that produced anti-tissue factor antibodies.

Assay [4] has as its target T2, human tissue factor on cells expressing it strongly such as MCF7 cells (human, UniProt P13726 33-295).
T2 construct: whole, on cells; also called TF
Briefly: flow cytometry screen of hybridomas on cells expressing TF.
Description: as §2

Usually koff stands for the rate constant with which the complex falls apart. As a reminder, the kon is the second-order rate constant of association.

B1: 1084ADC (ADC composed of the monoclonal antibody produced by clone No. 1084 and monomethyl auristatin E) (antibody, V domains shown)
VH: QVQLKESGPGLVQPSQTLSLTCIVSGFSLTNYNVHWVRQPAGAGLEWMGVIWTDGKTDYNSTLQSRLSISRDTSKSQVFLKMNSLQAEDIATYYCARDWDTGFDYWGQGVMVTVSS
VL: DIKMTQSPSSLSASLGERVTISCRASENINNILAWYQKKEDGSVKLLIHYTSNLQSGVPSRFSGSGSGKDYSLTISGLESEDIATYYCQQAYTPYAFGAGTKLELK
modifications: MMAE joined through a maleimide-PEG12-Val-Cit-PABA linker to sulfhydryl groups of the reduced antibody; sites and number not stated
notes: Whole rat monoclonal antibody from a rat-mouse hybridoma, conjugated to MMAE
For the molecule B1, the “koff relative to 1849ADC” value in assay [1] turned out to be 39.3 times. In assay [2], the Kd was found to be 35 nM, the koff was 0.000825 s⁻¹ and the association rate constant (kon) came out at 26100 M⁻¹ s⁻¹.

B2: monoclonal antibody produced by clone No. 1084 (antibody, V domains shown)
VH: B1 VH
VL: B1 VL
With B2, the binding result in assay [3] and in assay [4] was “binds” throughout.

(Values after patent publication US20210221911A1 (NATIONAL CANCER CENTER JAPAN, published 2021).)
